Assay results taken from the supplement of paper PMC9112550, “Optimization of the antimicrobial peptide Bac7 by deep mutational scanning” (BMC Biology, 2022).

System: Escherichia coli TOP10
Assay: shrunken log2 fold change of peptide-encoding DNA abundance (4.5 h post-induction vs induction); higher = less antimicrobial activity (less host growth inhibition)
Conditions: time post-induction: 4.5 h; library: site-saturation at positions 5, 18, 19, 20
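Also: peptides expressed intracellularly from a pBAD plasmid library in pooled LB shake-flask culture, induced with 0.3% L-arabinose, DNA abundance read by NGS, three biological replicates, DESeq2 with apeglm shrinkage.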

Q: RRIRVRPPRLPRPRPRPMDCPRP was tested. Which “shrunken log2 fold change” value did it give?
A: -0.0385

Q: RRIRSRPPRLPRPRPRPVIVPRP was tested. Which “shrunken log2 fold change” value did it give?
A: -0.191

Q: RRIRKRPPRLPRPRPRPFTQPRP was tested. Which “shrunken log2 fold change” value did it give?
A: -0.332

Q: How did the “shrunken log2 fold change” value turn out when RRIRARPPRLPRPRPRPNCTPRP was run?
A: 0.172

Q: Which “shrunken log2 fold change” value does the source give for RRIRRRPPRLPRPRPRPGSIPRP here?
A: -0.0979

Q: RRIRARPPRLPRPRPRPTWRPRP was tested. Which “shrunken log2 fold change” value did it give?
A: 0.813

Q: For RRIRARPPRLPRPRPRPTSYPRP, which “shrunken log2 fold change” value is on record?
A: -0.0752

Q: With RRIRARPPRLPRPRPRPLHMPRP as the sequence, how does the “shrunken log2 fold change” value read?
A: 1.15

Q: RRIRARPPRLPRPRPRPYHMPRP was tested. Which “shrunken log2 fold change” value did it give?
A: 0.00865

Q: RRIRDRPPRLPRPRPRPDDIPRP was tested. Which “shrunken log2 fold change” value did it give?
A: -0.00277

Q: For RRIRCRPPRLPRPRPRPGGHPRP, which “shrunken log2 fold change” value is on record?
A: 0.286

Q: With RRIRHRPPRLPRPRPRPSVSPRP as the sequence, how does the “shrunken log2 fold change” value read?
A: -0.0167

Q: With RRIRARPPRLPRPRPRPQECPRP as the sequence, how does the “shrunken log2 fold change” value read?
A: -0.0292

Q: Which “shrunken log2 fold change” value does the source give for RRIRKRPPRLPRPRPRPIYAPRP here?
A: 0.144

Q: How did the “shrunken log2 fold change” value turn out when RRIRARPPRLPRPRPRPNRTPRP was run?
A: 0.197

Q: Which “shrunken log2 fold change” value does the source give for RRIRNRPPRLPRPRPRPLKSPRP here?
A: -0.258

Q: For RRIRYRPPRLPRPRPRPHAEPRP, which “shrunken log2 fold change” value is on record?
A: -0.144

Q: With RRIRSRPPRLPRPRPRPVQSPRP as the sequence, how does the “shrunken log2 fold change” value read?
A: -0.0536

Q: With RRIRRRPPRLPRPRPRPHKGPRP as the sequence, how does the “shrunken log2 fold change” value read?
A: 0.221

Q: With RRIRERPPRLPRPRPRPFFDPRP as the sequence, how does the “shrunken log2 fold change” value read?
A: 0.0568

Q: Which “shrunken log2 fold change” value does the source give for RRIRYRPPRLPRPRPRPRFVPRP here?
A: -1.02

Q: For RRIRKRPPRLPRPRPRPFWTPRP, which “shrunken log2 fold change” value is on record?
A: 0.0312

Q: How did the “shrunken log2 fold change” value turn out when RRIRERPPRLPRPRPRPHSSPRP was run?
A: -0.0464

Q: For RRIRHRPPRLPRPRPRPHYVPRP, which “shrunken log2 fold change” value is on record?
A: -0.057

Q: RRIRIRPPRLPRPRPRPDFSPRP was tested. Which “shrunken log2 fold change” value did it give?
A: -0.175

Q: RRIRLRPPRLPRPRPRPNFRPRP was tested. Which “shrunken log2 fold change” value did it give?
A: -0.195

Q: RRIRYRPPRLPRPRPRPPNNPRP was tested. Which “shrunken log2 fold change” value did it give?
A: -0.708

Q: RRIRWRPPRLPRPRPRPREFPRP was tested. Which “shrunken log2 fold change” value did it give?
A: 0.349

Q: How did the “shrunken log2 fold change” value turn out when RRIRVRPPRLPRPRPRPVYYPRP was run?
A: -0.696

Q: How did the “shrunken log2 fold change” value turn out when RRIRPRPPRLPRPRPRPAQNPRP was run?
A: -0.105

Q: With RRIRNRPPRLPRPRPRPIKKPRP as the sequence, how does the “shrunken log2 fold change” value read?
A: 0.149

Q: For RRIRNRPPRLPRPRPRPICPPRP, which “shrunken log2 fold change” value is on record?
A: -0.0189

Q: How did the “shrunken log2 fold change” value turn out when RRIRYRPPRLPRPRPRPRGQPRP was run?
A: 0.0255

Q: RRIRPRPPRLPRPRPRPASVPRP was tested. Which “shrunken log2 fold change” value did it give?
A: 0.185

Q: How did the “shrunken log2 fold change” value turn out when RRIRDRPPRLPRPRPRPINNPRP was run?
A: -1.21

Q: For RRIRMRPPRLPRPRPRPCPHPRP, which “shrunken log2 fold change” value is on record?
A: 0.0961

Q: How did the “shrunken log2 fold change” value turn out when RRIRIRPPRLPRPRPRPPHVPRP was run?
A: -0.265

Q: For RRIRTRPPRLPRPRPRPTMSPRP, which “shrunken log2 fold change” value is on record?
A: -0.163

Q: Which “shrunken log2 fold change” value does the source give for RRIRHRPPRLPRPRPRPPFTPRP here?
A: -0.176

Q: RRIRPRPPRLPRPRPRPRCDPRP was tested. Which “shrunken log2 fold change” value did it give?
A: 0.0398

Q: RRIRKRPPRLPRPRPRPSIQPRP was tested. Which “shrunken log2 fold change” value did it give?
A: -0.149

Q: Which “shrunken log2 fold change” value does the source give for RRIRGRPPRLPRPRPRPEICPRP here?
A: 1.73

Q: How did the “shrunken log2 fold change” value turn out when RRIRARPPRLPRPRPRPWQHPRP was run?
A: 0.0196

Q: For RRIRNRPPRLPRPRPRPGTLPRP, which “shrunken log2 fold change” value is on record?
A: -0.0615

Q: RRIRIRPPRLPRPRPRPFAMPRP was tested. Which “shrunken log2 fold change” value did it give?
A: -0.98

Q: For RRIRCRPPRLPRPRPRPVKPPRP, which “shrunken log2 fold change” value is on record?
A: 0.477

Q: Which “shrunken log2 fold change” value does the source give for RRIRTRPPRLPRPRPRPRQTPRP here?
A: 0.0617

Q: RRIRQRPPRLPRPRPRPYDTPRP was tested. Which “shrunken log2 fold change” value did it give?
A: -0.307

Q: With RRIRERPPRLPRPRPRPSRPPRP as the sequence, how does the “shrunken log2 fold change” value read?
A: 0.168

Q: How did the “shrunken log2 fold change” value turn out when RRIRDRPPRLPRPRPRPIFSPRP was run?
A: -0.182

Q: With RRIRERPPRLPRPRPRPQQIPRP as the sequence, how does the “shrunken log2 fold change” value read?
A: -0.384

Q: How did the “shrunken log2 fold change” value turn out when RRIRGRPPRLPRPRPRPAVDPRP was run?
A: 0.896

Q: RRIRMRPPRLPRPRPRPAMNPRP was tested. Which “shrunken log2 fold change” value did it give?
A: -0.00221

Q: With RRIRHRPPRLPRPRPRPADSPRP as the sequence, how does the “shrunken log2 fold change” value read?
A: -0.039

Q: For RRIRFRPPRLPRPRPRPHNYPRP, which “shrunken log2 fold change” value is on record?
A: -0.633

Q: For RRIRSRPPRLPRPRPRPMTLPRP, which “shrunken log2 fold change” value is on record?
A: -0.103

Q: RRIRSRPPRLPRPRPRPCITPRP was tested. Which “shrunken log2 fold change” value did it give?
A: -0.185

Q: How did the “shrunken log2 fold change” value turn out when RRIRKRPPRLPRPRPRPSNMPRP was run?
A: -0.327

Q: How did the “shrunken log2 fold change” value turn out when RRIRYRPPRLPRPRPRPDHWPRP was run?
A: -0.166

Q: Which “shrunken log2 fold change” value does the source give for RRIRDRPPRLPRPRPRPKTIPRP here?
A: -0.00641
